Tests used:
Experiment in all cases: pull-down
[1] = target: recombinant APE1 C65S+C99S (UniProt P27695 1-318, C65S | C99S)
recombinant APE1 C99S = recombinant APE1 C99S (UniProt P27695 1-318, C99S)
recombinant APE1 C65S = recombinant APE1 C65S (UniProt P27695 1-318, C65S)
Chain of recombinant APE1 C65S (P27695 whole entry C65S): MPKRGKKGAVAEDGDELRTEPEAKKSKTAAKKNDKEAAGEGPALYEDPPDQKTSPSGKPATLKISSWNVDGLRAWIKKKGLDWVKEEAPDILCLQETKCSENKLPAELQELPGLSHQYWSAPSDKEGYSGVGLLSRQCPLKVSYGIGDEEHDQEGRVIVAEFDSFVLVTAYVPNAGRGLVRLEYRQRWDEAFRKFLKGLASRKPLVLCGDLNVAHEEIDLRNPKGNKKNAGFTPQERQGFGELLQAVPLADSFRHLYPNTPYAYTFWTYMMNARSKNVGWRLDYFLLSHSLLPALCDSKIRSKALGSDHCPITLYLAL

Chain of recombinant APE1 C65S+C99S (P27695 whole entry C65S/C99S): as the sequence (P27695 whole entry C65S) above, with C99S counted along it
Chain of recombinant APE1 C99S (P27695 whole entry C99S): as the sequence (P27695 whole entry C65S) above, with S65C, C99S counted along it

binding result [1]: binds | binding result (recombinant APE1 C99S): binds | binding result (recombinant APE1 C65S): binds
B1: recombinant GST-Mia40 wild type (natural protein, human, UniProt Q8N4Q1 1-142, looked up)
chain: MSYCRQEGKDRIIFVTKEDHETPSSAELVADDPNDPYEEHGLILPNGNINWNCPCLGGMASGPCGEQFKSAFSCFHYSTEEIKGSDCVDQFRAMQECMQKYPDLYPQEDEDEEEEREKKPAEQAEETAPIEATATKEEEGSS

Source: paper PMC4477663 (Nucleic Acids Research, 2015)
